In PMC12013497:

Target: wild-type Bacteroides fragilis glutamate decarboxylase (BfGADWT) (Bacteroides fragilis)
Assay: SEC

Substance: wild-type Bacteroides fragilis glutamate decarboxylase (BfGADWT) (enzyme)
- stoichiometry N: 6
